# US20040001839A1, “Multimers - isolated molecules comprising epitopes containing sulfated moieties, antibodies to such epitopes, and uses thereof” (priority 2000, published 2004)
# Columns and labels:
# KG-1 cells [1] = assay: FACS of Y1-biotag and Y1-biotag/streptavidin-PE tetramers on KG-1 cells; format: binding, human
# Experimental: In a preferred method, tetramers are formed via a biotin/streptavidin association. A novel fermentation construct that is capable of being enzymatically labeled with biotin (referred to herein as Y1-biotag or Y1-B) was created. A sequence that is a substrate for the BirA enzyme was added at the Y1 C-terminus. The BirA enzyme adds a biotin to the lysine residue within the sequence. Y1-biotag was expressed in E. coli. The inclusion body material was isolated and refolded. The purity of the folded protein was >95%, and >100 mg were obtained from a 1-L culture (small-scale, non-optimized conditions). […] Nevertheless, this construct offered the advantage of specific biotinylation in which the binding site of the molecule remains intact. Further, each molecule is labeled by only one biotin—each molecule receives one biotin on the carboxyl end.
# Limiting labeling to one biotin/molecule in a desired location enabled production of tetramers with streptavidin. The tetramers were formed by incubating Y1-B with steptavidin-PE.
# Y1-biotag tetramers with streptavidin-PE appear to specifically bind to one of the Y1-reactive cell lines (KG-1). The differential of this reaction, from background binding, was very high, and offered high sensitivity to detect low amounts of receptor. […] Monocytes and granulocytes were positive to a small extent. […]
# [2] = tested on: platelet-rich-plasma (PRP); assay: Ristocetin-induced aggregation of platelet-rich plasma (scFv); format: cell-based, human; details: scFv 38 μg/ml, 100% = ristocetin treatment
# Experimental: The effect of Y1 (scFv) on aggregation of platelet-rich-plasma (PRP) was tested at various concentrations of Y1. PRP was pre-incubated with Y1 scFv, Y17 scFv, or a control sTM-1cFv for 4 min at 37° C. before being exposed to ristocetin, an inducer of platelet agglutination and aggregation. A reversible inhibitory effect was observed when scFv was added to PRP prior to the addition of ristocetin, and it was dose dependent.
# Blood was collected into a tube containing 3.8% sodium citrate. Platelet-rich plasma was prepared by centrifugation at 250×g for 10 minutes.
# (§1) For platelet aggregation studies, platelet rich plasma (PRP) and washed platelets were stirred at 500 rpm at 37° C. in whole blood Lumiaggregometer (Chronolog, Havertown, Pa.). The difference in light transmission through the platelet suspension and suspending medium was taken as 100% aggregation. The effect of Y1 on platelet aggregation was evaluated by addition of different concentration of Y1 before the addition of agonist, and the effect was recorded for four minutes.
# washed platelets = assay: Ristocetin-induced agglutination of washed platelets (scFv); format: cell-based, human
# Experimental: Aggregation is determined in PRP due to the presence of thrombotic agents, while agglutination is determined in washed platelets. The effect of Y1 (scFv) on agglutination of washed platelets was tested at various concentrations of Y1. Platelets were pre-incubated with Y1 scFv, Y17 scFv, Y16-scFv, or a control TM-1 scFv for 4 min at 37° C. before being exposed to ristocetin, an inducer of platelet agglutination and aggregation.
# Platelet concentrate in acid-citrate-dextrose (ACD) was obtained from a blood bank, platelets were isolated, washed once in buffer containing ACD and saline in a ratio of 1:7. The platelets were centrifuged at 800 g for 10 min after each wash and were resuspended in Tyrodes solution (2 mM MgCl2, 137 mM NaCl, 2.68 mM KCl, 3 mM NaH2PO4, 0.1% glucose, 5 mM Hepes and 0.35% albumin, pH 7.35) and count the number of cells.
# as §1
# The effect of Y17-scFv on vWF-dependent agglutination of platelets was tested at different concentrations of Y17.
# Jurkat cells = assay: FACS binding of Y1-cys monomer and dimer to Jurkat cells; design: species or system human
# Description: The present invention is directed to Y1 and Y17 multimers prepared by any known method in the art. A preferred method of forming multimers, and especially dimers, employs the use of cysteine residues to form disulfide bonds between two monomers. In this embodiment, dimers are formed by adding a cysteine on the carboxyl terminus of the scFvs (referred to as Y1-cys scFv or Y1 dimer) in order to facilitate dimer formation. After the DNA construct was made (See Example 2D and 6D) and used for transfection, Y1 dimers were expressed in a production vector and refolded in vitro. The protein was analyzed by SDS-PAGE, HPLC, and FACS. […] Thus, the process was repeated and this time, two-liter fermentation batches of the antibodies were run. After expressing Y1-cys in E. coli strain BL21, refolding was done in arginine. Following refolding, the protein was dialyzed and purified by Q-sepharose and gel filtration (sephadex 75). Two peaks were detected by SDS-PAGE (non-reduced) and by gel filtration. The peaks were collected separately and analyzed by FACS. Monomer and dimer binding to Jurkat cells was checked by FACS. […] Conditions for dimer refolding were determined, and material comprising >90% dimers (mg quantities) was produced after subsequent dialysis, chromatographic, and gel filtration steps. […]
# KG-1 cells [3] = assay: Binding competition experiments on KG-1 cells (monomer, dimer, Y1 IgG); design: species or system human; details: as analyzed by radioreceptor assay, ELISA or FACS
# Description: To compare the binding of the scFv monomer (also referred to as CONY1) with the Y1 dimer, binding competition experiments were done in vitro on KG-1 cells. In addition, these experiments also compared the binding of the full Y1 IgG to the scFv Y1 monomers. To perform this study, a Y1 IgG was labeled with biotin.
molecule,measurement,setting,value
"Y1 tetramers: tetramers formed by incubating Y1-B with streptavidin-PE (protein, left off: another chain or arm of the molecule; large carriers; small tags and cut ends, tetramers formed by incubating Y1-B with streptavidin-PE) scFv 1: MEVQLVESGGGVVRPGGSLRLSCAASGFTFDDYGMSWVRQAPGKGLEWVSGINWNGGSTGYADSVKGRFTISRDNAKNSLYLQMNSLRAEDTAVYYCARMRAPVIWGQGTLVTVSRGGGGSGGGGSGGGGSSELTQDPAVSVALGQTVRITCQGDSLRSYYASWYQQKPGQAPVLVIYGKNNRPSGIPDRFSGSSSGNTASLTITGAQAEDEADYYCNSRDSSGNHVVFGGGTKLTVLGGGGLNDIFEAQKIEWHE scFv 2: MEVQLVESGGGVVRPGGSLRLSCAASGFTFDDYGMSWVRQAPGKGLEWVSGINWNGGSTGYADSVKGRFTISRDNAKNSLYLQMNSLRAEDTAVYYCARMRAPVIWGQGTLVTVSRGGGGSGGGGSGGGGSSELTQDPAVSVALGQTVRITCQGDSLRSYYASWYQQKPGQAPVLVIYGKNNRPSGIPDRFSGSSSGNTASLTITGAQAEDEADYYCNSRDSSGNHVVFGGGTKLTVLGGGGLNDIFEAQKIEWHE scFv 3: MEVQLVESGGGVVRPGGSLRLSCAASGFTFDDYGMSWVRQAPGKGLEWVSGINWNGGSTGYADSVKGRFTISRDNAKNSLYLQMNSLRAEDTAVYYCARMRAPVIWGQGTLVTVSRGGGGSGGGGSGGGGSSELTQDPAVSVALGQTVRITCQGDSLRSYYASWYQQKPGQAPVLVIYGKNNRPSGIPDRFSGSSSGNTASLTITGAQAEDEADYYCNSRDSSGNHVVFGGGTKLTVLGGGGLNDIFEAQKIEWHE scFv 4: MEVQLVESGGGVVRPGGSLRLSCAASGFTFDDYGMSWVRQAPGKGLEWVSGINWNGGSTGYADSVKGRFTISRDNAKNSLYLQMNSLRAEDTAVYYCARMRAPVIWGQGTLVTVSRGGGGSGGGGSGGGGSSELTQDPAVSVALGQTVRITCQGDSLRSYYASWYQQKPGQAPVLVIYGKNNRPSGIPDRFSGSSSGNTASLTITGAQAEDEADYYCNSRDSSGNHVVFGGGTKLTVLGGGGLNDIFEAQKIEWHE",reactivity in positive cell lines such as KG-1,KG-1 cells [1]; FACS,at least 100 fold
same,increase of the sensitivity of the binding,"KG-1 cells [1]; complexes with Streptavidin-PE, FACS on KG-1 cells",at least 100 fold
"Y17 scFv: second scFv clone binding platelets and myelogenous leukemia cell lines; SEQ ID NO:203, CDR3 SEQ ID NO:20 (protein, listed as Homo sapiens) scFv: MKYLLPTAAAGLLLLAAQPAMAEVQLVESGGGVVRPGGSLRLSCAASGFTFDDYGMSWVRQAPGKGLEWVSGINWNGGSTGYADSVKGRFTISRDNAKNSLYLQMNSLRAEDTAVYYCARLTHPYFWGQGTLVTVSRGGGGSGGGGSGGGGSSELTQDPAVSVALGQTVRITCQGDSLRSYYASWYQQKPGQAPVLVIYGKNNRPSGIPDRFSGSSSGNTASLTITGAQAEDEADYYCNSRDSSGNHVVFGGGTKLTVLGAAAEQKLISEEDLNGAA",% aggregation,[2],100%
same,inhibition of vWF-dependent platelet agglutination,"washed platelets; final concentration of 10, 25 or 50 μg/ml, washed platelets, ristocetin",did not inhibit
same,% agglutination,"washed platelets; scFv 25 μg/ml, 100% = ristocetin treatment",85%
same,% inhibition,"washed platelets; scFv 25 μg/ml, ristocetin-induced agglutination",15%
Y1 dimer: disulfide dimer of Y1 scFv with a cysteine added on the carboxyl terminus (protein) scFv 1: MEVQLVESGGGVVRPGGSLRLSCAASGFTFDDYGMSWVRQAPGKGLEWVSGINWNGGSTGYADSVKGRFTISRDNAKNSLYLQMNSLRAEDTAVYYCARMRAPVIWGQGTLVTVSRGGGGSGGGGSGGGGSSELTQDPAVSVALGQTVRITCQGDSLRSYYASWYQQKPGQAPVLVIYGKNNRPSGIPDRFSGSSSGNTASLTITGAQAEDEADYYCNSRDSSGNHVVFGGGTKLTVLGGGGCKAK scFv 2: MEVQLVESGGGVVRPGGSLRLSCAASGFTFDDYGMSWVRQAPGKGLEWVSGINWNGGSTGYADSVKGRFTISRDNAKNSLYLQMNSLRAEDTAVYYCARMRAPVIWGQGTLVTVSRGGGGSGGGGSGGGGSSELTQDPAVSVALGQTVRITCQGDSLRSYYASWYQQKPGQAPVLVIYGKNNRPSGIPDRFSGSSSGNTASLTITGAQAEDEADYYCNSRDSSGNHVVFGGGTKLTVLGGGGCKAK,amount needed relative to the monomeric antibody for the same level of staining,Jurkat cells,1/100
same,binding relative to the Y1 scFv monomer,KG-1 cells [3],at least 20 fold
